Target: human oxidized LDL (copper-oxidized low-density lipoprotein from plasma of a healthy individual) (human) (UniProt P04114)
Assay: cell-based or functional assay

B1: Human-derived Del-1 (developmental endothelial locus-1), recombinant protein having a His tag added to the C-terminus (protein, not shown: small tags and cut ends)
chain: DICDPNPCENGGICLPGLADGSFSCECPDGFTDPNCSSVVEVASDEEEPTSAGPCTPNPCHNGGTCEISEAYRGDTFIGYVCKCPRGFNGIHCQHNINECEVEPCKNGGICTDLVANYSCECPGEFMGRNCQYKCSGPLGIEGGIISNQQITASSTHRALFGLQKWYPYYARLNKKGLINAWTAAENDRWPWIQINLQRKMRVTGVITQGAKRIGSPEYIKSYKIAYSNDGKTWAMYKVKGTNEDMVFRGNIDNNTPYANSFTPPIKAQYVRLYPQVCRRHCTLRMELLGCELSGCSEPLGMKSGHIQDYQITASSIFRTLNMDMFTWEPRKARLDKQGKVNAWTSGHNDQSQWLQVDLLVPTKVTGIITQGAKDFGHVQFVGSYKLAYSNDGEHWTVYQDEKQRKDKVFQGNFDNDTHRKNVIDPPIYARHIRILPWSWYGRITLRSELLGCTEEE
uptake of DiI-labeled oxidized LDL into LOX-1-expressing cells (fluorescence intensity): > 90%

Source: patent US20140378659A1
